The record followed here is patent publication US20260193638A1.

The term Kd denotes the concentration at which binding is half-saturated. In general, koff refers to the rate constant with which the complex falls apart. Usually kon stands for the second-order rate constant of association.

The target of test [1] is T1, Thermus thermophilus SlyD-IGF-1 (74-90) chimeric polypeptide.
T1 sequence: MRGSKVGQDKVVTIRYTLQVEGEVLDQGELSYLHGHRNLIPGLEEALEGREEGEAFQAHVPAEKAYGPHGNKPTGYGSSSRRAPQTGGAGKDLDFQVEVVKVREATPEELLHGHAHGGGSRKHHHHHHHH
Nature of the test: SPR at 25 °C, antibody captured, antigen in solution.

Test [2] deals with recombinant native human IGF-1 (human) (UniProt P05019). The description is as above.
Test [3] has the same target. The experiment in a line: SPR at 37 °C, antibody captured, analyte in solution.
In test [4] the target is T1, Thermus thermophilus SlyD-IGF-1 (74-90) chimeric polypeptide. The experiment in a line: ELISA, undiluted culture supernatant. A general note: ELISA stands for enzyme-linked immunosorbent assay.
Test [5] addresses recombinant native human IGF-1 (human) (UniProt P05019). Nature of the test: ELISA, undiluted culture supernatant.
Test [6] has as its target T2, recombinant wild-type Thermus thermophilus SlyD (His6 tagged control) (Thermus thermophilus).
T2 sequence: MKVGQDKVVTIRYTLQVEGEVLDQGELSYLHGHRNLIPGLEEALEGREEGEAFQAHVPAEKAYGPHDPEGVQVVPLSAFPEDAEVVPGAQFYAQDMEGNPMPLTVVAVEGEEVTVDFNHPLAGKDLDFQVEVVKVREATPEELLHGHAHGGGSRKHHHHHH
Nature of the test: ELISA, undiluted culture supernatant.

Test [7] has as its target T1, Thermus thermophilus SlyD-IGF-1 (74-90) chimeric polypeptide. The experiment in a line: SPR at 37 °C, antibody captured, analyte in solution.
Test [8] concerns the target recombinant native human IGF-1 (human) (UniProt P05019). Described as above. The source holds these as a separate data set.

B1: monoclonal antibody M-10.7.9 (antibody, from a related filing, V domains shown)
VH: QVQLQQSGAELVRPGSSVKISCKASGYAFSSYWMNWVKQRPGQGLEWIGQIYPGDGDTNHNGKFKGKATLTADKSSSTVYMQLSSLTSEDSAVYFCARSGDYYGKDYWGQGTTLTVSS
VL: DIVLTQTPPSLPVNMGQKATISYKATKSLLNTDGYTYMHWNQQKPGQPPKLLIYLVSNRESGVPDRFSGSGSGTDFTLNINTVEEEDAATYYCHHSNELPHTFGAGTKLEIK
In the case of B1, the equilibrium dissociation constant (Kd) in test [1] was 2.4 nM; in test [2], 1.6 nM; in test [3], 4.5 nM. Also, the MR in test [1] was 1.8; in test [2] it was 1.7. For the same molecule, the koff in test [1] was found to be 0.00069 s⁻¹; in test [2], 0.0015 s⁻¹; in test [3], 0.006 s⁻¹; in test [7] it was 1e-05 s⁻¹; in test [8], 1e-05 s⁻¹. Besides, the kon in test [1] was determined as 290000 M⁻¹ s⁻¹; in test [2] it was 920000 M⁻¹ s⁻¹; in test [3] it was 1.3e+06 M⁻¹ s⁻¹. For the same molecule, the t/2-diss in test [1] stood at 17 min; in test [2] it was 8 min; in test [3], 2 min; in test [7] it was 1160 min; in test [8], 1160 min. In addition, the Ka in test [3] was 2.2e+08 M⁻¹. Moreover, the results for the reactivity in test [4], in test [5] and in test [6] were 1900 mE, 2110 mE and 36 mE, respectively.

B2: monoclonal antibody M-11.11.17 (antibody, from a related filing, V domains shown)
VH: QVQLQQSGAELVRPGSSVKISCKASGYAFSNLWMNWVKQRPGQGLEWIGQIYPGDGDTNYYGDFKGKATLTADSSSSTAYMQLSRLTSEDSAVYFCARIGYYGMDYWGQGTSVTVSS
VL: DVVLTQTPLSLPVNIGDEASISCKSTKSLLSSDGLTYLDWYLQKPGQSPQVLIYLVSNRFSGVPDRFSGSGSGTDFTLKISRVEAEDLGVYYCFQSNYLPTFGAGTKLELK
In the case of B2, the values for the equilibrium dissociation constant (Kd) in test [1], in test [2] and in test [3] were 0.01 nM, 0.01 nM and 0.046 nM, respectively. Besides, the MR in test [1] and in test [2] was 2 in each case. The koff in test [1] was 1e-05 s⁻¹; in test [2], 2.1e-05 s⁻¹; in test [3], 0.00014 s⁻¹; in test [7], 1e-05 s⁻¹; in test [8], 1e-05 s⁻¹. Also, the values for the kon in test [1], in test [2] and in test [3] were 710000 M⁻¹ s⁻¹, 2e+06 M⁻¹ s⁻¹ and 3.1e+06 M⁻¹ s⁻¹, respectively. Further, the t/2-diss in test [1] came out at 1110 min; in test [2], 560 min; in test [3], 81 min; in test [7], 1160 min; in test [8] it was 1160 min. Moreover, the Ka in test [3] is 2.2e+10 M⁻¹. Moreover, the reactivity in test [4] stood at 2150 mE; in test [5], 2430 mE; in test [6] it was 32 mE.
